Measurements as given in patent publication US20040171158A1 (VECTORLOGICS, published 2004).

Tests used:
[1] = target: T1, Ad5 fiber-zipper protein with zipper peptide EE12RR345L at the carboxy terminus of the fiber (Ad5 (adenovirus serotype 5), UniProt P11818 1-581); test: co-precipitation of cell lysate with 6His-tagged sCAR on Ni-NTA matrix, detection with anti-fiber antibody
T1 construct: Transiently expressed in 293 cells, tested as cell lysate; also called Carboxy terminus of the fiber EE12RR345L; pVS-LL-EN

[2] = target: T2, Ad5 fiber-zipper protein with zipper peptide RR12EE345L at the carboxy terminus of the fiber (Ad5 (adenovirus serotype 5), UniProt P11818 1-581); test: as above
T2 construct: Transiently expressed in 293 cells, tested as cell lysate; also called Carboxy terminus of the fiber RR12EE345L; pVS-LL-RN
T2 sequence: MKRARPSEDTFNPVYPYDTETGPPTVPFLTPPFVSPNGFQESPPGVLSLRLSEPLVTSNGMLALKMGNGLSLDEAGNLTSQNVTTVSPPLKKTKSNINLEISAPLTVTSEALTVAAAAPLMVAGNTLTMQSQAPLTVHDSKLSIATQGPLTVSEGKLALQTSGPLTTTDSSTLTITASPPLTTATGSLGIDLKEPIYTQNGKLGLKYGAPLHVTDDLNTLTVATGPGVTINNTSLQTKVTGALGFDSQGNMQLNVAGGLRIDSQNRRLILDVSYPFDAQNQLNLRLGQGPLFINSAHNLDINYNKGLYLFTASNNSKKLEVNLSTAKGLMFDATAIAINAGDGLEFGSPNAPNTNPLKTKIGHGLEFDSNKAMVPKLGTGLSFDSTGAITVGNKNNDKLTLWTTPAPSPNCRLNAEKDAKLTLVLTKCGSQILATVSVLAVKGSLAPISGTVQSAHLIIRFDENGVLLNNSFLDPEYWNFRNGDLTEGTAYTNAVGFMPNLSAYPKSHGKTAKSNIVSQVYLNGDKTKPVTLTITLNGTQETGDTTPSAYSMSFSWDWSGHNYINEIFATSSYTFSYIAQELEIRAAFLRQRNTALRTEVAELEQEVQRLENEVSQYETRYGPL

B1: soluble form of the coxsackie virus and adenovirus receptor (CAR) with a carboxy terminal 6His tag (receptor)
chain: LSITTPEEMIEKAKGETAYLPCKFTLSPEDQGPLDIEWLISPADNQKVDQVIILYSGDKIYDDYYPDLKGRVHFTSNDLKSGDASINVTNLQLSDIGTYQCKVKKAPGVANKKIHLVVLVKPSGARCYVDGSEEIGSDFKIKCEPKEGSLPLQYEWQKLSDSQKMPTSWLAEMTSSVISVKNASSEYSGTYSCTVRNRVGSDQCLLRLNVVPPSNKAHHHHHH
notes: also called sCAR; native adenoviral receptor
B1: no binding [1]; no binding [2].
